According to IntAct's records for PubMed 20223215:

B1: Low-density lipoprotein receptor-related protein 8 (Homo sapiens), Q14114 (parent)
chain: MGLPEPGPLRLLALLLLLLLLLLLQLQHLAAAAADPLLGGQGPAKDCEKDQFQCRNERCIPSVWRCDEDDDCLDHSDEDDCPKKTCADSDFTCDNGHCIHERWKCDGEEECPDGSDESEATCTKQVCPAEKLSCGPTSHKCVPASWRCDGEKDCEGGADEAGCATLCAPHEFQCGNRSCLAAVFVCDGDDDCGDGSDERGCADPACGPREFRCGGDGGGACIPERWVCDRQFDCEDRSDEAAELCGRPGPGATSAPAACATASQFACRSGECVHLGWRCDGDRDCKDKSDEADCPLGTCRGDEFQCGDGTCVLAIKHCNQEQDCPDGSDEAGCLQGLNECLHNNGGCSHICTDLKIGFECTCPAGFQLLDQKTCGDIDECKDPDACSQICVNYKGYFKCECYPGYEMDLLTKNCKAAAGKSPSLIFTNRHEVRRIDLVKRNYSRLIPMLKNVVALDVEVATNRIYWCDLSYRKIYSAYMDKASDPKEQEVLIDEQLHSPEGLAVDWVHKHIYWTDSGNKTISVATVDGGRRRTLFSRNLSEPRAIAVDPLRGFMYWSDWGDQAKIEKSGLNGVDRQTLVSDNIEWPNGITLDLLSQRLYWVDSKLHQLSSIDFSGGNRKTLISSTDFLSHPFGIAVFEDKVFWTDLENEAIFSANRLNGLEISILAENLNNPHDIVIFHELKQPRAPDACELSVQPNGGCEYLCLPAPQISSHSPKYTCACPDTMWLGPDMKRCYRAPQSTSTTTLASTMTRTVPATTRAPGTTVHRSTYQNHSTETPSLTAAVPSSVSVPRAPSISPSTLSPATSNHSQHYANEDSKMGSTVTAAVIGIIVPIVVIALLCMSGYLIWRNWKRKNTKSMNFDNPVYRKTTEEEDEDELHIGRTAQIGHVYPAAISSFDRPLWAEPCLGETREPEDPAPALKELFVLPGEPRSQLHQLPKNPLSELPVVKSKRVALSLEDDGLP

Variants of: B1
Conditions: with reln_mouse Reln

| Variant | effect of a mutation on the interaction |
| --- | --- |
| P61A | disrupting interaction |
| D50A | decreasing interaction |
| V63A | decreasing interaction |

The remaining lines, values ahead:

| effect of a mutation on the interaction | Variant |
| --- | --- |
| disrupting interaction | D69N |
| disrupting interaction | W64H |
